The results in this text go back to publication PMC3797246 (Structure (London, England : 1993), 2013).

The data set “co-IP” deals with the molecule itself. Kind of data set: co-IP.
The target of data set [1] is T1, SARAH domain of human RASSF5 (RASSF5^SARAH, residues 366-413) (human, UniProt Q8WWW0 366-413).
T1 chain (looked up): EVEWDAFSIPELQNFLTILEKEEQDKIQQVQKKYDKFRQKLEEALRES
Kind of data set: SEC.

The data set “SEC” deals with the molecule itself. Kind of data set: SEC.
The data set “AUC” deals with the molecule itself. Kind of data set: AUC.

B1: Mst2 D456A, full-length, in vitro translated (enzyme, human, UniProt Q13188 1-491, looked up)
chain: MEQPPAPKSKLKKLSEDSLTKQPEEVFDVLEKLGEGSYGSVFKAIHKESGQVVAIKQVPVESDLQEIIKEISIMQQCDSPYVVKYYGSYFKNTDLWIVMEYCGAGSVSDIIRLRNKTLIEDEIATILKSTLKGLEYLHFMRKIHRDIKAGNILLNTEGHAKLADFGVAGQLTDTMAKRNTVIGTPFWMAPEVIQEIGYNCVADIWSLGITSIEMAEGKPPYADIHPMRAIFMIPTNPPPTFRKPELWSDDFTDFVKKCLVKNPEQRATATQLLQHPFIKNAKPVSILRDLITEAMEIKAKRHEEQQRELEEEEENSDEDELDSHTMVKTSVESVGTMRATSTMSEGAQTMIEHNSTMLESDLGTMVINSEDEEEEDGTMKRNATSPQVQRPSFMDYFDKQDFKNKSHENCNQNMHEPFPMSKNVFPDNWKVPQDGDFDFLKNLSLEELQMRLKALAPMMEREIEELRQRYTAKRQPILDAMDAKKRRQQNF
modifications: 35S-methionine label
B1: the “binding compared to wild-type Mst2” value in the data set “co-IP” was no less than 30%.

B2: Mst2 L466A, full-length, in vitro translated (enzyme, human, UniProt Q13188 1-491, looked up)
chain: MEQPPAPKSKLKKLSEDSLTKQPEEVFDVLEKLGEGSYGSVFKAIHKESGQVVAIKQVPVESDLQEIIKEISIMQQCDSPYVVKYYGSYFKNTDLWIVMEYCGAGSVSDIIRLRNKTLIEDEIATILKSTLKGLEYLHFMRKIHRDIKAGNILLNTEGHAKLADFGVAGQLTDTMAKRNTVIGTPFWMAPEVIQEIGYNCVADIWSLGITSIEMAEGKPPYADIHPMRAIFMIPTNPPPTFRKPELWSDDFTDFVKKCLVKNPEQRATATQLLQHPFIKNAKPVSILRDLITEAMEIKAKRHEEQQRELEEEEENSDEDELDSHTMVKTSVESVGTMRATSTMSEGAQTMIEHNSTMLESDLGTMVINSEDEEEEDGTMKRNATSPQVQRPSFMDYFDKQDFKNKSHENCNQNMHEPFPMSKNVFPDNWKVPQDGDFDFLKNLSLEELQMRLKALDPMMEREIEEARQRYTAKRQPILDAMDAKKRRQQNF
modifications: 35S-methionine label
Regarding B2, in the data set “co-IP”, the “binding compared to wild-type Mst2” value is no less than 30%.

B3: Mst2 K473A, full-length, in vitro translated (enzyme, human, UniProt Q13188 1-491, looked up)
chain: MEQPPAPKSKLKKLSEDSLTKQPEEVFDVLEKLGEGSYGSVFKAIHKESGQVVAIKQVPVESDLQEIIKEISIMQQCDSPYVVKYYGSYFKNTDLWIVMEYCGAGSVSDIIRLRNKTLIEDEIATILKSTLKGLEYLHFMRKIHRDIKAGNILLNTEGHAKLADFGVAGQLTDTMAKRNTVIGTPFWMAPEVIQEIGYNCVADIWSLGITSIEMAEGKPPYADIHPMRAIFMIPTNPPPTFRKPELWSDDFTDFVKKCLVKNPEQRATATQLLQHPFIKNAKPVSILRDLITEAMEIKAKRHEEQQRELEEEEENSDEDELDSHTMVKTSVESVGTMRATSTMSEGAQTMIEHNSTMLESDLGTMVINSEDEEEEDGTMKRNATSPQVQRPSFMDYFDKQDFKNKSHENCNQNMHEPFPMSKNVFPDNWKVPQDGDFDFLKNLSLEELQMRLKALDPMMEREIEELRQRYTAARQPILDAMDAKKRRQQNF
modifications: 35S-methionine label
With B3, in “co-IP”, the “binding compared to wild-type Mst2” value is no less than 30%.

B4: Mst2 R467A, full-length, in vitro translated (enzyme, human, UniProt Q13188 1-491, looked up)
chain: MEQPPAPKSKLKKLSEDSLTKQPEEVFDVLEKLGEGSYGSVFKAIHKESGQVVAIKQVPVESDLQEIIKEISIMQQCDSPYVVKYYGSYFKNTDLWIVMEYCGAGSVSDIIRLRNKTLIEDEIATILKSTLKGLEYLHFMRKIHRDIKAGNILLNTEGHAKLADFGVAGQLTDTMAKRNTVIGTPFWMAPEVIQEIGYNCVADIWSLGITSIEMAEGKPPYADIHPMRAIFMIPTNPPPTFRKPELWSDDFTDFVKKCLVKNPEQRATATQLLQHPFIKNAKPVSILRDLITEAMEIKAKRHEEQQRELEEEEENSDEDELDSHTMVKTSVESVGTMRATSTMSEGAQTMIEHNSTMLESDLGTMVINSEDEEEEDGTMKRNATSPQVQRPSFMDYFDKQDFKNKSHENCNQNMHEPFPMSKNVFPDNWKVPQDGDFDFLKNLSLEELQMRLKALDPMMEREIEELAQRYTAKRQPILDAMDAKKRRQQNF
modifications: 35S-methionine label
Take B4: in the data set “co-IP”, the “binding compared to wild-type Mst2” value was no less than 30%.

B5: Mst2 R469A, full-length, in vitro translated (enzyme, human, UniProt Q13188 1-491, looked up)
chain: MEQPPAPKSKLKKLSEDSLTKQPEEVFDVLEKLGEGSYGSVFKAIHKESGQVVAIKQVPVESDLQEIIKEISIMQQCDSPYVVKYYGSYFKNTDLWIVMEYCGAGSVSDIIRLRNKTLIEDEIATILKSTLKGLEYLHFMRKIHRDIKAGNILLNTEGHAKLADFGVAGQLTDTMAKRNTVIGTPFWMAPEVIQEIGYNCVADIWSLGITSIEMAEGKPPYADIHPMRAIFMIPTNPPPTFRKPELWSDDFTDFVKKCLVKNPEQRATATQLLQHPFIKNAKPVSILRDLITEAMEIKAKRHEEQQRELEEEEENSDEDELDSHTMVKTSVESVGTMRATSTMSEGAQTMIEHNSTMLESDLGTMVINSEDEEEEDGTMKRNATSPQVQRPSFMDYFDKQDFKNKSHENCNQNMHEPFPMSKNVFPDNWKVPQDGDFDFLKNLSLEELQMRLKALDPMMEREIEELRQAYTAKRQPILDAMDAKKRRQQNF
modifications: 35S-methionine label
B5: in “co-IP”, the “binding compared to wild-type Mst2” value is no less than 30%.

B6: Mst2 L445A, full-length, in vitro translated (enzyme, human, UniProt Q13188 1-491, looked up)
chain: MEQPPAPKSKLKKLSEDSLTKQPEEVFDVLEKLGEGSYGSVFKAIHKESGQVVAIKQVPVESDLQEIIKEISIMQQCDSPYVVKYYGSYFKNTDLWIVMEYCGAGSVSDIIRLRNKTLIEDEIATILKSTLKGLEYLHFMRKIHRDIKAGNILLNTEGHAKLADFGVAGQLTDTMAKRNTVIGTPFWMAPEVIQEIGYNCVADIWSLGITSIEMAEGKPPYADIHPMRAIFMIPTNPPPTFRKPELWSDDFTDFVKKCLVKNPEQRATATQLLQHPFIKNAKPVSILRDLITEAMEIKAKRHEEQQRELEEEEENSDEDELDSHTMVKTSVESVGTMRATSTMSEGAQTMIEHNSTMLESDLGTMVINSEDEEEEDGTMKRNATSPQVQRPSFMDYFDKQDFKNKSHENCNQNMHEPFPMSKNVFPDNWKVPQDGDFDFLKNLSAEELQMRLKALDPMMEREIEELRQRYTAKRQPILDAMDAKKRRQQNF
modifications: 35S-methionine label
Turning to B6, in the data set “co-IP”, the “binding compared to wild-type Mst2” value is no less than 30%.

B7: Mst2 R474A, full-length, in vitro translated (enzyme, human, UniProt Q13188 1-491, looked up)
chain: MEQPPAPKSKLKKLSEDSLTKQPEEVFDVLEKLGEGSYGSVFKAIHKESGQVVAIKQVPVESDLQEIIKEISIMQQCDSPYVVKYYGSYFKNTDLWIVMEYCGAGSVSDIIRLRNKTLIEDEIATILKSTLKGLEYLHFMRKIHRDIKAGNILLNTEGHAKLADFGVAGQLTDTMAKRNTVIGTPFWMAPEVIQEIGYNCVADIWSLGITSIEMAEGKPPYADIHPMRAIFMIPTNPPPTFRKPELWSDDFTDFVKKCLVKNPEQRATATQLLQHPFIKNAKPVSILRDLITEAMEIKAKRHEEQQRELEEEEENSDEDELDSHTMVKTSVESVGTMRATSTMSEGAQTMIEHNSTMLESDLGTMVINSEDEEEEDGTMKRNATSPQVQRPSFMDYFDKQDFKNKSHENCNQNMHEPFPMSKNVFPDNWKVPQDGDFDFLKNLSLEELQMRLKALDPMMEREIEELRQRYTAKAQPILDAMDAKKRRQQNF
modifications: 35S-methionine label
Regarding B7, the “binding compared to wild-type Mst2” value in the data set “co-IP” was no less than 30%.

B8: linker-deletion Mst2 (Mst2^ΔL, residues 9-313 and 428-491) (enzyme, human, UniProt Q13188 9-313, looked up)
chain: SKLKKLSEDSLTKQPEEVFDVLEKLGEGSYGSVFKAIHKESGQVVAIKQVPVESDLQEIIKEISIMQQCDSPYVVKYYGSYFKNTDLWIVMEYCGAGSVSDIIRLRNKTLIEDEIATILKSTLKGLEYLHFMRKIHRDIKAGNILLNTEGHAKLADFGVAGQLTDTMAKRNTVIGTPFWMAPEVIQEIGYNCVADIWSLGITSIEMAEGKPPYADIHPMRAIFMIPTNPPPTFRKPELWSDDFTDFVKKCLVKNPEQRATATQLLQHPFIKNAKPVSILRDLITEAMEIKAKRHEEQQRELEEEENWKVPQDGDFDFLKNLSLEELQMRLKALDPMMEREIEELRQRYTAKRQPILDAMDAKKRRQQNF
B8: the binding result in data set [1] is recorded as “binds”.

B9: full-length Mst2 (Mst2^FL, residues 9-491) (enzyme, human, UniProt Q13188 9-491, looked up)
chain: SKLKKLSEDSLTKQPEEVFDVLEKLGEGSYGSVFKAIHKESGQVVAIKQVPVESDLQEIIKEISIMQQCDSPYVVKYYGSYFKNTDLWIVMEYCGAGSVSDIIRLRNKTLIEDEIATILKSTLKGLEYLHFMRKIHRDIKAGNILLNTEGHAKLADFGVAGQLTDTMAKRNTVIGTPFWMAPEVIQEIGYNCVADIWSLGITSIEMAEGKPPYADIHPMRAIFMIPTNPPPTFRKPELWSDDFTDFVKKCLVKNPEQRATATQLLQHPFIKNAKPVSILRDLITEAMEIKAKRHEEQQRELEEEEENSDEDELDSHTMVKTSVESVGTMRATSTMSEGAQTMIEHNSTMLESDLGTMVINSEDEEEEDGTMKRNATSPQVQRPSFMDYFDKQDFKNKSHENCNQNMHEPFPMSKNVFPDNWKVPQDGDFDFLKNLSLEELQMRLKALDPMMEREIEELRQRYTAKRQPILDAMDAKKRRQQNF
modifications: phosphorylated at the activation loop (T180) as purified from bacteria
With B9, the “stoichiometry N” value in the data set “SEC” came to 2.

B10: catalytically inactive mutant of the human Mst2 kinase domain (Mst2^KD/D146N) (domain or fragment, UniProt Q13188 16-313, looked up)
chain: EDSLTKQPEEVFDVLEKLGEGSYGSVFKAIHKESGQVVAIKQVPVESDLQEIIKEISIMQQCDSPYVVKYYGSYFKNTDLWIVMEYCGAGSVSDIIRLRNKTLIEDEIATILKSTLKGLEYLHFMRKIHRNIKAGNILLNTEGHAKLADFGVAGQLTDTMAKRNTVIGTPFWMAPEVIQEIGYNCVADIWSLGITSIEMAEGKPPYADIHPMRAIFMIPTNPPPTFRKPELWSDDFTDFVKKCLVKNPEQRATATQLLQHPFIKNAKPVSILRDLITEAMEIKAKRHEEQQRELEEEE
For B10, the “stoichiometry N” value in “AUC” was 2.
